# Experimental data: US20250108112A1
# Key:
# TGFβ1 (R&D systems) = TGFβ1 (R&D systems) (UniProt P01137); assay: cell-based or functional assay
# [1] = biological target: IL2Rβ and common γ chain expressed on 32Dβ cells; assay: cell-based or functional assay
# Sequence of UniProt P01137 (P01137 279-390 limits assumed): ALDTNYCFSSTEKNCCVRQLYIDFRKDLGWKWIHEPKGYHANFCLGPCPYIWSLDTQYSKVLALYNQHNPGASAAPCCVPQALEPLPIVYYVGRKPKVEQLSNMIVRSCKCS
IC50 for TGFβ1 activity in HEK-Blue TGFβ cells (QUANTI-Blue OD at 620-655 nM) (TGFβ1 (R&D systems)),"EC50 of 32Dβ cell proliferation (WST1, absorbance at 450 nM) [1]",Substance
0.461 nM,,TGFR-Fc (R&D Systems) (Fc fusion)
,0.0106 nM,recombinant IL-15 (from UniProt P40933 49-162) (ligand)
